The target of this series is T1, beta-lactoglobulin (β-LG) (bovine? (cow's milk), UniProt P02754 17-178).
T1 sequence: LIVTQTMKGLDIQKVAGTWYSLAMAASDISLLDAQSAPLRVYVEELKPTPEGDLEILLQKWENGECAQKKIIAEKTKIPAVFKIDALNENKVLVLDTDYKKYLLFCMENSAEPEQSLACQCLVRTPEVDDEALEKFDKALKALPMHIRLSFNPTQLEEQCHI
Description: dot blot; 100 µg β-LG on nitrocellulose, 400 pmol aptamer in PBS, 37 °C; Dot blot: PBS, 37 °C, 1 h, membrane blocked with 5% BSA/0.01% Tween 20; QCM-D: β-LG in PBS pH 3.5, 37 °C, aptamer 0.5 µM in TRIS with 0.1% BSA for immobilization; PBS (pH 7.4 stock) contains CaCl2 and MgCl2. The following applies: protein: native; tags: none; chain copies: 2; label: biotin; predicted secondary structure only.

B1: Apt 356 (ssDNA)
DNA: GCCTGTTGTGAGCCTCCTAACCTGGTGTGCAAGGTGGACTCTCTTTATCTTGTTGTCAGTCTCATCACCGCATGCTTATTCTTGTCTCCC
modifications: 5'-biotin
As to B1, the binding result is “binds”.
